# Test results taken from publication PMC10786891, “Massively parallel profiling of RNA-targeting CRISPR-Cas13d”.
# Substitutions are numbered along the chain they refer to. Names and notes keep the numbering of the source.
# T1: EsCas13d, nuclease-dead (Eubacterium siraeum, UniProt B0MS50, R295A;H300A;R849A;H854A)
# T1 sequence: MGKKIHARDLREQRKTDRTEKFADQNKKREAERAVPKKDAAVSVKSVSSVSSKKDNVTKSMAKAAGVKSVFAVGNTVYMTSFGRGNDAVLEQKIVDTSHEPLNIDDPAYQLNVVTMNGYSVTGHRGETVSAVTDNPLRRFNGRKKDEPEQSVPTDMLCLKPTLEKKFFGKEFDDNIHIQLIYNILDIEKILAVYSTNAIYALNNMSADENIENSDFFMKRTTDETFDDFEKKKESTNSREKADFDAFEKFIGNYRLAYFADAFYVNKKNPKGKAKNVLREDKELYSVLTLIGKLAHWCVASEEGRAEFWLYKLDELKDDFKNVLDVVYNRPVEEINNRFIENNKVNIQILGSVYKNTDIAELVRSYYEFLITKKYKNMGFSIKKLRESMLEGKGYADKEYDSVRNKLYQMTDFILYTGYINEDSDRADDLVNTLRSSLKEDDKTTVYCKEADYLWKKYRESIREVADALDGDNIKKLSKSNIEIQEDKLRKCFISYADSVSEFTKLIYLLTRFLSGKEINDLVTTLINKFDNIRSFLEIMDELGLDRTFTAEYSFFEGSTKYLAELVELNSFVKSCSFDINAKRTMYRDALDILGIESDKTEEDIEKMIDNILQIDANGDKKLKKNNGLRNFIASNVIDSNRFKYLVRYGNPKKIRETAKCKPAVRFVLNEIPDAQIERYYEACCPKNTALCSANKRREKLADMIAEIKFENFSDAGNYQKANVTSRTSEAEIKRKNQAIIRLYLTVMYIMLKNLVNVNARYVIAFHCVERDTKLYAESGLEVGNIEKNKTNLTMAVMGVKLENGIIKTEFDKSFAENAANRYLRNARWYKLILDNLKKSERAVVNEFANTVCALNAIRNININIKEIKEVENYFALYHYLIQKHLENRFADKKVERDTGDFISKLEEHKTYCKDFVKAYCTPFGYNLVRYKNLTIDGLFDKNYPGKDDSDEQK
# B1: target 1 insC 3' of 20,insU 3' of 9 (mixed)
# RNA 1: CACCCGUGCAAAAAUGCAGGGGUCUAAAACUGAGCGGAUAACCUCUCUAUGG
# RNA 2: GGGAAUGGAUCCACAUCUACGAAUUCGUACCACUAGAGAGGUUAUUCCGCUCACCGAGAUCGGAAGAGCACACGU
# B2: target 1 insA 3' of 17,insG 3' of 4 (mixed)
# RNA 1: B1 RNA 1
# RNA 2: B1 RNA 2 with C33U, U34A, A35G, G36A, U46C, C48G, G49C, C50G
# B3: target 1 A16C,C21U (mixed)
# RNA 1: B1 RNA 1
# RNA 2: GGGAAUGGAUCCACAUCUACGAAUUCGUACUAUAGCGAGGUUAUCCGCUCACCGAGAUCGGAAGAGCACACGU
# B4: target 3 U2C,G4A (mixed)
# RNA 1: CACCCGUGCAAAAUUGCAGGGGUCUAAAACGACCUGAAUAUUUCAGAUCAAA
# RNA 2: GGGAAUGGAUCCACAUCUACGAAUUCGUUUUUGAUCUGAAAUAUUCAAGCCUGCAGAUCGGAAGAGCACACGU
# B5: target 3 insU 3' of 5,insC 3' of 5 (mixed)
# RNA 1: B4 RNA 1
# RNA 2: GGGAAUGGAUCCACAUCUACGAAUUCGUUUUUGAUCUGAAAUAUUCAUCGGUCUGCAGAUCGGAAGAGCACACGU
# B6: target 3 G3C,C6A (mixed)
# RNA 1: B4 RNA 1
# RNA 2: B4 RNA 2 with C46A, A48G, G49C, C50U
# B7: target 3 C1U,U8G (mixed)
# RNA 1: B4 RNA 1
# RNA 2: B4 RNA 2 with U44G, A48G, C50U, C51U
# B8: target 3 G4A,U8A (mixed)
# RNA 1: B4 RNA 1
# RNA 2: B4 RNA 2 with U44A, C50U
# B9: target 3 insU 3' of 14,insG 3' of 2 (mixed)
# RNA 1: B4 RNA 1
# RNA 2: GGGAAUGGAUCCACAUCUACGAAUUCGUUUUUGAUCUGUAAAUAUUCAGGUGCUGCAGAUCGGAAGAGCACACGU
# B10: target 3 U2G,U10A (mixed)
# RNA 1: B4 RNA 1
# RNA 2: B4 RNA 2 with U42A, A48G, C50G
# B11: target 3 A5G,C6G (mixed)
# RNA 1: B4 RNA 1
# RNA 2: B4 RNA 2 with C46G, A47G, A48G, C50U
# B12: target 3 insA 3' of 22,insU 3' of 6 (mixed)
# RNA 1: B4 RNA 1
# RNA 2: GGGAAUGGAUCCACAUCUACGAAUUCGUUUAUUGAUCUGAAAUAUUCUAGGUCUGCAGAUCGGAAGAGCACACGU
# B13: target 3 C1U,A5C (mixed)
# RNA 1: B4 RNA 1
# RNA 2: B4 RNA 2 with A47C, A48G, C50U, C51U
# B14: target 3 A18G,U21C (mixed)
# RNA 1: B4 RNA 1
# RNA 2: B4 RNA 2 with U31C, A34G, A48G, C50U
# B15: target 3 C1G,G3U (mixed)
# RNA 1: B4 RNA 1
# RNA 2: B4 RNA 2 with A48G, G49U, C50U, C51G
# B16: target 3 insG 3' of 2,insG 3' of 1 (mixed)
# RNA 1: B4 RNA 1
# RNA 2: B5 RNA 2 with U48G, C49G, G50U, U52C, C53G
# B17: target 3 insA 3' of 6,insG 3' of 2 (mixed)
# RNA 1: B4 RNA 1
# RNA 2: B5 RNA 2 with U48A, C49G, G51U, U52G
# B18: target 3 insG 3' of 18,insU 3' of 1 (mixed)
# RNA 1: B4 RNA 1
# RNA 2: B9 RNA 2 with U35G, C36U, U37C, G38U, U39G, G52C, C53U
# B19: target 3 G3C,U7G (mixed)
# RNA 1: B4 RNA 1
# RNA 2: B4 RNA 2 with U45G, A48G, G49C, C50U
# B20: target 3 insU 3' of 6,insC 3' of 5 (mixed)
# RNA 1: B4 RNA 1
# RNA 2: B5 RNA 2 with A47U, U48A
# B21: target 3 G4U,U22G (mixed)
# RNA 1: B4 RNA 1
# RNA 2: B4 RNA 2 with U30G, A48U, C50U
# B22: target 3 insC 3' of 22,insA 3' of 6 (mixed)
# RNA 1: B4 RNA 1
# RNA 2: B12 RNA 2 with A31C, U48A
# B23: target 3 del2,del22 (mixed)
# RNA 1: B4 RNA 1
# RNA 2: GGGAAUGGAUCCACAUCUACGAAUUCGUUUUGAUCUGAAAUAUUCAGGCUGCAGAUCGGAAGAGCACACGU
# B24: target 3 C6A,U22A (mixed)
# RNA 1: B4 RNA 1
# RNA 2: B4 RNA 2 with U30A, C46A, A48G, C50U
# B25: target 3 G3C,A5G (mixed)
# RNA 1: B4 RNA 1
# RNA 2: B4 RNA 2 with A47G, A48G, G49C, C50U
# B26: target 3 insA 3' of 21,insG 3' of 6 (mixed)
# RNA 1: B4 RNA 1
# RNA 2: B12 RNA 2 with A31U, U32A, U48G
# B27: target 3 insA 3' of 8,insC 3' of 3 (mixed)
# RNA 1: B4 RNA 1
# RNA 2: B5 RNA 2 with U45A, C46U, A47C, U48A, C49G, G51C
# B28: target 3 insG 3' of 9,insA 3' of 3 (mixed)
# RNA 1: B4 RNA 1
# RNA 2: B5 RNA 2 with U44G, C46U, A47C, U48A, C49G, G51A
# B29: target 3 insA 3' of 2,insG 3' of 2 (mixed)
# RNA 1: B4 RNA 1
# RNA 2: B5 RNA 2 with U48G, C49G, G50U, G51A, U52G
# B30: target 3 insG 3' of 7,insG 3' of 7 (mixed)
# RNA 1: B4 RNA 1
# RNA 2: B5 RNA 2 with C46G, A47G, U48C, C49A
# B31: target 3 insA 3' of 7,insA 3' of 7 (mixed)
# RNA 1: B4 RNA 1
# RNA 2: B5 RNA 2 with C46A, U48C, C49A
# B32: target 3 del2,del4 (mixed)
# RNA 1: B4 RNA 1
# RNA 2: GGGAAUGGAUCCACAUCUACGAAUUCGUUUUUGAUCUGAAAUAUUCAGCUGCAGAUCGGAAGAGCACACGU
# B33: target 3 U20C (mixed)
# RNA 1: B4 RNA 1
# RNA 2: B4 RNA 2 with U32C, A48G, C50U
# Target: T1, EsCas13d, nuclease-dead
# Assay: crRNA (strand 1, pre-loaded); Mg2+; 40 mM Tris-HCl pH 7.5, 150 mM NaCl, 6 mM MgCl2, 1 mM DTT, 0.1% Tween-20, 0.2 mg/ml BSA; 25 C; 10 min per concentration, then washed
# Conditions: tags: His6-TwinStrep-SUMO cleaved; N-terminal SNAP kept (SNAP-Surface 488); label: 3' end held by stalled T7 RNA polymerase
row,Binder,Kd
1,B1,0.008 ± 0.0009 µM
2,B2,0.0102 ± 0.0004 µM
3,B3,0.0085 ± 0.0006 µM
4,B4,0.0169 ± 0.00245 µM
5,B5,0.00659 ± 0.00054 µM
6,B6,0.027 ± 0.002 µM
7,B7,0.0645 ± 0.0165 µM
8,B8,0.0765 ± 0.0095 µM
9,B9,0.0335 ± 0.011 µM
10,B10,0.063 ± 0.016 µM
11,B11,0.0204 ± 0.00175 µM
12,B12,0.0325 ± 0.0055 µM
13,B13,0.0605 ± 0.0095 µM
14,B14,0.075 ± 0.026 µM
15,B15,0.0186 ± 0.00335 µM
16,B16,0.0256 ± 0.00425 µM
17,B17,0.00405 ± 0.0006 µM

row,Binder,Kd
1,B18,0.0825 ± 0.017 µM
2,B19,0.06 ± 0.0075 µM
3,B20,0.0154 ± 0.00145 µM
4,B21,0.037 ± 0.006 µM
5,B22,0.0149 ± 0.00195 µM
6,B23,0.00525 ± 0.0007 µM
7,B24,0.0595 ± 0.0065 µM
8,B25,0.0161 ± 0.0014 µM
9,B26,0.0485 ± 0.0065 µM
10,B27,0.043 ± 0.007 µM
11,B28,0.0555 ± 0.0125 µM
12,B29,0.0209 ± 0.00215 µM
13,B30,0.0415 ± 0.0055 µM
14,B31,0.038 ± 0.0055 µM
15,B32,0.0369 ± 0.0052 µM
16,B33,0.0625 ± 0.018 µM
